Numbering of substitutions follows the chain as printed. Like-named read-outs stand apart in the source and are kept apart here. Each block holds one binder with its values, some of them ahead of it.
Legend:
EpCAM (KSA) [1] = target: T1, EpCAM (KSA) (human, UniProt P16422); test: ELISA
T1 chain: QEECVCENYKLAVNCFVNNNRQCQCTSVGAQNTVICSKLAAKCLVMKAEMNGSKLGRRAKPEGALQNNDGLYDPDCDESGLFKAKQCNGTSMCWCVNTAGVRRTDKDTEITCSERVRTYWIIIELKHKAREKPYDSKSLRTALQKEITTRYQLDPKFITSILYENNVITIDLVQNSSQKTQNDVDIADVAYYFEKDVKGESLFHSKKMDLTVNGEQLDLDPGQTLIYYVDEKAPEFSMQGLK

EpCAM (KSA) [2] = target: T1, EpCAM (KSA); test: SPR
EpCAM (KSA) [3] = target: T1, EpCAM (KSA); test: ELISA
EpCAM (KSA) [4] = target: T1, EpCAM (KSA); test: SPR

B4: VK8/VH7 (Construct 3) (antibody, V domains shown)
VH: QIQLVQSGAEVKKPGETVKISCKASGYTFTNYGMNWVKQTPGKGLKWMGWINTYTGEPTYADDFKGRFAFSLETSTSTAFLQINNLRSEDTATYFCVRFISKGDYWGQGTSVTVSS
VL: EIVLTQSPATLSLSPGERVTLTCSASSSVSYMLWYQQKPGSSPKPWIFDTSNLASGFPARFSGSGSGTSYSLIISSMEAEDAATYYCHQRSGYPYTFGGGTKLEIK
Kd (EpCAM (KSA) [4]): 1 nM

B5: VK0/VH0 (hybridoma chKS-1/4) (antibody, V domains shown)
VH: B4 VH with A9P, V11L, K38R, T40A, A69V, T76A, I83L
VL: B4 VL with E1Q, V3L, T10I, L11M, L13A, R18K, L21M
Kd (EpCAM (KSA) [4]): 1 nM

B6: VK1/VH1-IL2 (antibody, V domains shown)
VH: QIQLVQSGPELKKPGSSVKISCKASGYTFTNYGMNWVRQAPGKGLKWMGWINTYTGEPTYADDFKGRFTITAETSTSTLYLQLNNLRSEDTATYFCVRFMSKGDYWGQGTTVTVSS
VL: QIVLTQSPASLAVSPGQRATITCSASSSVSYILWYQQKPGQPPKPWIFDTSNLASGFPSRFSGSGSGTSYTLTINSLEAEDAATYYCHQRSGYPYTFGGGTKVEIK
Kd (EpCAM (KSA) [2]): 7.9 nM

B7: VK1/VH2-IL2 (antibody, V domains shown)
VH: B6 VH with M100I
VL: B6 VL
Kd (EpCAM (KSA) [2]): 3.1 nM

Now from value to binder:

binding result (EpCAM (KSA) [1]): no binding
B1: VK6/VH6 (Construct 1) (antibody, V domains shown)
VH: QVQLVQSGAEVKKPGESVKISCKASGYTFTNYGMNWVRQAPGKGLEWMGWINTYTGEPTYAQKFQGRVTISLDTSTSTAYLQLSSLRAEDTAVYFCVRFISKGDYWGQGTSVTVSS
VL: EIVLTQSPATLSLSPGERVTLTCSASSSVSYMLWYQQKPGQAPKLLIFDTSNLASGIPARFSGSGSGTDYTLTISSLEPEDFAVYYCHQRSGYPYTFGGGTKLEIK

Kd (EpCAM (KSA) [2]): 1 nM
B2: VK8/VH7-IL2 (antibody, V domains shown)
VH: B4 VH
VL: B4 VL

binding result (EpCAM (KSA) [3]): no binding
B3: '369 chKS-1/4 (VK0/VH'369) (antibody, V domains shown)
VH: QIQLVQSGPELKKPGETVKISCKASGYTFTNYGMNWVKQTPGKGLKWMGWINTYTGEPTYADDFKGRFAFSLETSASTAFLQIQQPQNMRTMATYFCVRFISKGDYWGQGTSVTVSS
VL: B4 VL with E1Q, V3L, T10I, L11M, L13A, R18K, L21M

— patent publication US6969517 (dated 2005)
